Measurements as given in patent publication US20240181007A1, “COMPOSITIONS AND METHODS FOR TREATING PULMONARY HYPERTENSION” (Acceleron Pharma Inc., priority 2021, published 2024).
One block for each molecule: values may come before it.

Columns and labels:
activin A [1] = target: T1, activin A (UniProt P08476 311-426); test: cell-based or functional assay
T1 construct: Soluble ligand injected in SPR or added in the reporter assay
T1 sequence (looked up): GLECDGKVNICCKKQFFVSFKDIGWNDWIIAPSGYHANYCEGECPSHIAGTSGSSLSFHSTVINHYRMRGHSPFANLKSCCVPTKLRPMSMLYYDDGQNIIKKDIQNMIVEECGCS

GDF11 [2] = target: T2, GDF11 (UniProt O95390 299-407); test: cell-based or functional assay
T2 construct: also called Growth and differentiation factor-11; BMP11
T2 sequence (looked up): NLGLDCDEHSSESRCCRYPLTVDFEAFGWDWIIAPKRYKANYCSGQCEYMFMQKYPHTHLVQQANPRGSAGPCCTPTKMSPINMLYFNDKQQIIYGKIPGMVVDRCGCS

BMP9 [3] = target: T3, BMP9 (UniProt Q9UK05 320-429); test: cell-based or functional assay
T3 sequence (looked up): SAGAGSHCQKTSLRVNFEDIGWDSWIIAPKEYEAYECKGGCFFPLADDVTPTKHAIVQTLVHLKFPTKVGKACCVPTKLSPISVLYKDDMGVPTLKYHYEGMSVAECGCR

Activin A [4] = target: T4, Activin A (Homo sapiens, UniProt P08476); test: Biacore-based binding assay (surface plasmon resonance), activin A; conditions: for activin A binding compared to ActRIIB-G1Fc (in words): FIGS. 8A and 8B
T4 sequence (P08476 311-426): T1 sequence (looked up)
Experimental: (§1) To determine ligand binding profiles of variant ActRIIB-Fc homodimers, a Biacore™-based binding assay was used to compare ligand binding kinetics of certain variant ActRIIB-Fc polypeptides. ActRIIB-Fc polypeptides to be tested were independently captured onto the system using an anti-Fc antibody. Ligands were then injected and allowed to flow over the captured receptor protein. ActRIIB-G1Fc was used as the control polypeptide.
as §1, with “protein.” for “protein. ActRIIB-G1Fc was used as the control polypeptide.”
(§2) A Biacore™-based binding assay was used to compare the ligand binding kinetics of an ActRIIB-Fc:ActRIIB(L79E)-Fc heterodimer with those of unmodified ActRIIB-Fc homodimer. Fusion proteins were captured onto the system using an anti-Fc antibody. Ligands were then injected and allowed to flow over the captured receptor protein at 37° C. Results are summarized in the table below, in which ligand off-rates (kd) most indicative of effective ligand traps are denoted in bold.

Activin B = target: T5, Activin B (Homo sapiens, UniProt P09529); test: Biacore-based binding assay (surface plasmon resonance), activin B; conditions: for affinity for activin B compared to unmodified ActRIIB-Fc (in words): SPR 37° C., compared to ActRIIB-G1Fc / ActRIIB-Fc homodimer
T5 sequence (P09529 293-407): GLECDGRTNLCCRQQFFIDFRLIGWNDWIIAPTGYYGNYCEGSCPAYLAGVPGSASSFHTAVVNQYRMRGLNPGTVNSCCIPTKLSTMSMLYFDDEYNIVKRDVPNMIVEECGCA
Experimental: as §1, §2

BMP9 [5] = target: T6, BMP9 (Homo sapiens, UniProt Q9UK05); test: Biacore-based binding assay (surface plasmon resonance), BMP9; conditions: for binding to BMP9 compared to unmodified ActRIIB-Fc (in words): SPR 37° C., compared to ActRIIB-G1Fc / ActRIIB-Fc homodimer
T6 sequence (Q9UK05 320-429): T3 sequence (looked up)
Experimental: as §1
as §1, with “protein.” for “protein. ActRIIB-G1Fc was used as the control polypeptide.”
as §2

BMP10 = target: T7, BMP10 (Homo sapiens, UniProt O95393); test: Biacore-based binding assay (surface plasmon resonance), BMP10; conditions: for BMP10 binding compared to ActRIIB-G1Fc (in words): FIGS. 8A and 8B
T7 sequence (O95393 317-424): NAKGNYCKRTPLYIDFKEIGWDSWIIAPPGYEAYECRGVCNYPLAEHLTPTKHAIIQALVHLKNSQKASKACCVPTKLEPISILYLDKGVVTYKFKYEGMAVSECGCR
Experimental: as §1, §2

GDF8 = target: T8, GDF8 (Homo sapiens, UniProt O14793); test: Biacore-based binding assay (surface plasmon resonance), GDF8; conditions: for GDF8 binding compared to unmodified ActRIIB-Fc (in words): SPR 37° C., compared to ActRIIB-G1Fc / ActRIIB-Fc homodimer
T8 sequence (O14793 267-375): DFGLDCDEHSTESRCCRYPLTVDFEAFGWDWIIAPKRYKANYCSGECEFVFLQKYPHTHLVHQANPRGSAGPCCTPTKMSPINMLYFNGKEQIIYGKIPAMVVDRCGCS
Experimental: as §1, §2

GDF11 [6] = target: T9, GDF11 (Homo sapiens, UniProt O95390); test: Biacore-based binding assay (surface plasmon resonance), GDF11; conditions: for GDF11 binding compared to unmodified ActRIIB-Fc (in words): SPR 37° C., compared to ActRIIB-G1Fc / ActRIIB-Fc homodimer
T9 sequence (O95390 299-407): T2 sequence (looked up)
Experimental: as §1
as §1, with “protein.” for “protein. ActRIIB-G1Fc was used as the control polypeptide.”
as §2

GDF3 = target: T10, GDF3 (Homo sapiens, UniProt Q9NR23); test: Biacore-based binding assay (surface plasmon resonance), GDF3; conditions: 37° C., capture by anti-Fc antibody
T10 sequence (Q9NR23 251-364): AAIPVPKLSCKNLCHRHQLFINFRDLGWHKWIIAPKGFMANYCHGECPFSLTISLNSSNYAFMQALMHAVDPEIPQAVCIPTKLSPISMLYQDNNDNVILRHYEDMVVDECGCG
Experimental: as §2

BMP6 = target: T11, BMP6 (Homo sapiens, UniProt P22004); test: Biacore-based binding assay (surface plasmon resonance), BMP6
T11 sequence (P22004 375-513): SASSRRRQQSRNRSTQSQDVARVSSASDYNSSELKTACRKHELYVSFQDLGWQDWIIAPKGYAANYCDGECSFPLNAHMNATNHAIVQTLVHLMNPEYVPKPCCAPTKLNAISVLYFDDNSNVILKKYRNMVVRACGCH
Experimental: as §2

[7] = 37° C., capture by anti-Fc antibody
[8] = 37° C., capture by anti-Fc antibody, Transient*: indeterminate due to transient nature of interaction

IC50 (ng/ml), A204 CAGA12 luciferase reporter assay (activin A [1]): 396 ng/mL
IC50 (ng/ml), A204 CAGA12 luciferase reporter assay (GDF11 [2]): 365 ng/mL
IC50 (ng/ml), A204 CAGA12 luciferase reporter assay (BMP9 [3]): 5500 ng/mL
Molecule: K55D (homodimeric ActRIIB-Fc construct) (Fc fusion)

IC50 (ng/ml), A204 CAGA12 luciferase reporter assay (activin A [1]): 206 ng/mL
IC50 (ng/ml), A204 CAGA12 luciferase reporter assay (GDF11 [2]): 318 ng/mL
IC50 (ng/ml), A204 CAGA12 luciferase reporter assay (BMP9 [3]): 777 ng/mL
Molecule: K55R (homodimeric ActRIIB-Fc construct) (Fc fusion)

activin A binding compared to ActRIIB-G1Fc (in words) (Activin A [4]; SPR 37° C.): significant decrease
affinity for activin B compared to unmodified ActRIIB-Fc (in words) (Activin B): relatively high affinity for activin B
binding to BMP9 compared to unmodified ActRIIB-Fc (in words) (BMP9 [5]): decrease in binding to BMP9
BMP10 binding compared to ActRIIB-G1Fc (in words) (BMP10; SPR 37° C.): decrease in BMP10 binding
Molecule: L79H-F82I: homodimeric ActRIIB-G1Fc fusion with L79H and F82I substitutions; mature SEQ ID NO: 341

activin A binding compared to ActRIIB-G1Fc (in words) (Activin A [4]; SPR 37° C.): significant decrease
affinity for activin B compared to unmodified ActRIIB-Fc (in words) (Activin B): relatively high affinity for activin B
binding to BMP9 compared to unmodified ActRIIB-Fc (in words) (BMP9 [5]): decrease in binding to BMP9
BMP10 binding compared to ActRIIB-G1Fc (in words) (BMP10; SPR 37° C.): decrease in BMP10 binding
Molecule: L79H-F82K: homodimeric ActRIIB-G1Fc fusion with L79H and F82K substitutions; mature SEQ ID NO: 347
GDF8 binding compared to unmodified ActRIIB-Fc (in words) (GDF8): significant decrease in GDF8 and GDF11 binding
GDF11 binding compared to unmodified ActRIIB-Fc (in words) (GDF11 [6]): significant decrease in GDF8 and GDF11 binding

activin A binding compared to ActRIIB-G1Fc (in words) (Activin A [4]; SPR 37° C.): significant decrease
affinity for activin B compared to unmodified ActRIIB-Fc (in words) (Activin B): relatively high affinity for activin B
binding to BMP9 compared to unmodified ActRIIB-Fc (in words) (BMP9 [5]): decrease in binding to BMP9
BMP10 binding compared to ActRIIB-G1Fc (in words) (BMP10; SPR 37° C.): decrease in BMP10 binding
Molecule: L79H: homodimeric ActRIIB-G1Fc fusion with L79H substitution; mature SEQ ID NO: 344

ka Activin A (Activin A [4]; [7]): 8.8e+06 M⁻¹ s⁻¹
kd Activin A (Activin A [4]; [7]): 0.0015 s⁻¹
off-rate for activin A compared to ActRIIB-Fc homodimer (Activin A [4]; SPR 37° C.): approximately ten-fold faster off-rates
ka Activin B (Activin B; [7]): 8.3e+06 M⁻¹ s⁻¹
kd Activin B (Activin B; [7]): 0.00021 s⁻¹
affinity for activin B compared to unmodified ActRIIB-Fc (in words) (Activin B): largely retained high-affinity binding
ka GDF3 (GDF3): 580000 M⁻¹ s⁻¹
kd GDF3 (GDF3): 0.0059 s⁻¹
ka GDF8 (GDF8; [7]): 3.4e+06 M⁻¹ s⁻¹
kd GDF8 (GDF8; [7]): 0.0005 s⁻¹
GDF8 binding compared to unmodified ActRIIB-Fc (in words) (GDF8): largely retained high-affinity binding
ka GDF11 (GDF11 [6]; [7]): 4e+07 M⁻¹ s⁻¹
kd GDF11 (GDF11 [6]; [7]): 0.00036 s⁻¹
GDF11 binding compared to unmodified ActRIIB-Fc (in words) (GDF11 [6]): largely retained high-affinity binding
ka BMP6 (BMP6; [7]): 3.3e+08 M⁻¹ s⁻¹
kd BMP6 (BMP6; [7]): 0.018 s⁻¹
BMP6 binding compared to ActRIIB-Fc homodimer (in words) (BMP6; SPR 37° C.): largely retained high-affinity binding
ka BMP9 (BMP9 [5]; [8]): Transient*
kd BMP9 (BMP9 [5]; [8]): Transient*
ka BMP10 (BMP10; [7]): 4.8e+07 M⁻¹ s⁻¹
kd BMP10 (BMP10; [7]): 0.002 s⁻¹
off-rate for BMP10 compared to ActRIIB-Fc homodimer (BMP10; SPR 37° C.): approximately ten-fold faster off-rates
B1: ActRIIB-Fc:ActRIIB(L79E)-Fc heterodimer: heteromeric complex of unmodified human ActRIIB-Fc and ActRIIB(L79E)-Fc, each fused to a G1Fc domain with linker (protein)
chain 1: GRGEAETRECIYYNANWELERTNQSGLERCEGEQDKRLHCYASWRNSSGTIELVKKGCWEDDFNCYDRQECVATEENPQVYFCCCEGNFCNERFTHLPEAGGPEVTYEPPPTAPTGGGTHTCPPCPAPELLGGPSVFLFPPKPKDTLMISRTPEVTCVVVDVSHEDPEVKFNWYVDGVEVHNAKTKPREEQYNSTYRVVSVLTVLHQDWLNGKEYKCKVSNKALPAPIEKTISKAKGQPREPQVYTLPPSREEMTKNQVSLTCLVKGFYPSDIAVEWESNGQPENNYDTTPPVLDSDGSFFLYSDLTVDKSRWQQGNVFSCSVMHEALHNHYTQKSLSLSPG
chain 2: GRGEAETRECIYYNANWELERTNQSGLERCEGEQDKRLHCYASWRNSSGTIELVKKGCWLDDFNCYDRQECVATEENPQVYFCCCEGNFCNERFTHLPEAGGPEVTYEPPPTAPTGGGTHTCPPCPAPELLGGPSVFLFPPKPKDTLMISRTPEVTCVVVDVSHEDPEVKFNWYVDGVEVHNAKTKPREEQYNSTYRVVSVLTVLHQDWLNGKEYKCKVSNKALPAPIEKTISKAKGQPREPQVYTLPPSRKEMTKNQVSLTCLVKGFYPSDIAVEWESNGQPENNYKTTPPVLKSDGSFFLYSKLTVDKSRWQQGNVFSCSVMHEALHNHYTQKSLSLSPGK
binding to BMP9 compared to unmodified ActRIIB-Fc (in words) (BMP9 [5]): even greater reduction in the strength of binding to BMP9
